# From patent publication US20240360223A1 (DRAGONFLY THERAPEUTICS, published 2024)
# Substitutions are numbered along the chain they refer to. Values joined by “and” are separate entries in the source; they are usually repeats but may differ in a detail not shown here. Identical values can stand only once.
# T1: human NKG2D (recombinant mFc-tagged dimer) (human, UniProt P26718 78-216)
# T1 construct: also called hNKG2D
# T1 sequence (looked up): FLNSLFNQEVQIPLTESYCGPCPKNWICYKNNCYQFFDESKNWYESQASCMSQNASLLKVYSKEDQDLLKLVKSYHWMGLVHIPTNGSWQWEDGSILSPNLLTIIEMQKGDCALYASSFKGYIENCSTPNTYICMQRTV
# T2: cynomolgus NKG2D (recombinant mFc-tagged dimer) (cynomolgus, UniProt P61252 78-216)
# T2 construct: also called cyno NKG2D
# T2 sequence (looked up): T1 sequence (looked up) with D38N, T128I
# T3: recombinant human TACI (human, UniProt O14836 2-166, limits assumed)
# T3 sequence (looked up): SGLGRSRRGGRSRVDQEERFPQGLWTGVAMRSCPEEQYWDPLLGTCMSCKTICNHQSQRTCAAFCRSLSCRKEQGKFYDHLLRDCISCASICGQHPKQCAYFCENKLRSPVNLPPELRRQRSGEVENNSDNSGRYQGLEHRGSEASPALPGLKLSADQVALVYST
# T4: human CD32b (human, UniProt P31994 46-217, limits assumed)
# T4 construct: also called FcγRIIb
# T4 sequence (looked up): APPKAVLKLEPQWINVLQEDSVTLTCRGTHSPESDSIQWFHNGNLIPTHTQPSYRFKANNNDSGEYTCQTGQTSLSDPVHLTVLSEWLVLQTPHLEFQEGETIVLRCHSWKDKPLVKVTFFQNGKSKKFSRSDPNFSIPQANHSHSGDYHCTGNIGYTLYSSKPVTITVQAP
# B1: AB1424/AB1612 F3′ TriNKET (bispecific antibody, human IgG1, kappa)
# chain: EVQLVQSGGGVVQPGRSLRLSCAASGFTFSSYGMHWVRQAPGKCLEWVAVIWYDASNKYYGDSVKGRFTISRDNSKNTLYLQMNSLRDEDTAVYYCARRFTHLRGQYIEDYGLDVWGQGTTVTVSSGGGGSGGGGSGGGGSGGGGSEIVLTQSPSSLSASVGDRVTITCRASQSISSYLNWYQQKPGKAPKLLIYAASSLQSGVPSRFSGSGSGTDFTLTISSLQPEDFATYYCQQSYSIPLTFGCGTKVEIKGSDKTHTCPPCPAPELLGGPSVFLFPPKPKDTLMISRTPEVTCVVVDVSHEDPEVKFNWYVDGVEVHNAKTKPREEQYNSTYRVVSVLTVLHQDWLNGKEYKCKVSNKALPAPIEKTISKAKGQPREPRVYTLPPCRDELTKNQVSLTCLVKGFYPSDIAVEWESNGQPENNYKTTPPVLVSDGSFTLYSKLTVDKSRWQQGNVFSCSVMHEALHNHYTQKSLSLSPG
# heavy: EVQLVESGGGLVKPGGSLRLSCAASGFTFSSYSMNWVRQAPGKGLEWVSSISSSSSYIYYADSVKGRFTISRDNAKNSLYLQMNSLRAEDTAVYYCARGAPIGAAAGWFDPWGQGTLVTVSSASTKGPSVFPLAPSSKSTSGGTAALGCLVKDYFPEPVTVSWNSGALTSGVHTFPAVLQSSGLYSLSSVVTVPSSSLGTQTYICNVNHKPSNTKVDKKVEPKSCDKTHTCPPCPAPELLGGPSVFLFPPKPKDTLMISRTPEVTCVVVDVSHEDPEVKFNWYVDGVEVHNAKTKPREEQYNSTYRVVSVLTVLHQDWLNGKEYKCKVSNKALPAPIEKTISKAKGQPREPQVCTLPPSRDELTENQVSLTCLVKGFYPSDIAVEWESNGQPENNYKTTPPVLDSDGSFFLYSWLTVDKSRWQQGNVFSCSVMHEALHNHYTQKSLSLSPG
# light: DIQMTQSPSSVSASVGDRVTITCRASQGISSWLAWYQQKPGKAPKLLIYAASSLQSGVPSRFSGSGSGTDFTLTISSLQPEDFATYYCQQGVSFPRTFGGGTKVEIKRTVAAPSVFIFPPSDEQLKSGTASVVCLLNNFYPREAKVQWKVDNALQSGNSQESVTEQDSKDSTYSLSSTLTLSKADYEKHKVYACEVTHQGLSSPVTKSFNRGEC
# notes: Chain S: anti-BAFF-R scFv-CH2-CH3; chain H: anti-NKG2D VH-CH1-CH2-CH3; chain L: anti-NKG2D VL-CL; also called AB1612-002
# Columns and labels:
# human FcRn [1] = target: T5, human FcRn (human, UniProt P55899 24-297; P61769 21-119); assay: SPR, pH 6.0, steady state; pH 6.0; second replicate
# T5 sequence (P55899 24-297 limits assumed, chain 1 of 2): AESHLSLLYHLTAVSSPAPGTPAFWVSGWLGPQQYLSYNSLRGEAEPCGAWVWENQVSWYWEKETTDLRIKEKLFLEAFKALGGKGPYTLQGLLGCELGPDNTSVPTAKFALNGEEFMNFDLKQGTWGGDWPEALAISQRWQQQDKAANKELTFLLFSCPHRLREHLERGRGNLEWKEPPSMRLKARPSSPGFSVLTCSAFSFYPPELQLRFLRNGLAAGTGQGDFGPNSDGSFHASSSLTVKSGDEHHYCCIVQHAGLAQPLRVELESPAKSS
# T5 sequence (P61769 21-119 limits assumed, chain 2 of 2): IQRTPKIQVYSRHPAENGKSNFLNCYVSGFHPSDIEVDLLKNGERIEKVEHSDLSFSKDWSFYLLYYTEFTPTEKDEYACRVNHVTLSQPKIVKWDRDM
# [2] = target: T1, human NKG2D (recombinant mFc-tagged …); assay: SPR, average
# Description: (§1) NKG2D is a native dimer, therefore recombinant mFc-tagged NKG2D dimer was used for this experiment. Two different fits were utilized to obtain the equilibrium affinity data: steady state affinity fit and kinetic fit.
# cynomolgus FcRn [3] = target: T6, cynomolgus FcRn (cynomolgus, UniProt Q8SPV9 24-297; Q8SPW0 21-119); assay: SPR, pH 6.0, summary table
# T6 construct: also called Cyno FcRn
# T6 sequence (Q8SPV9 24-297 limits assumed, chain 1 of 2): as the sequence (P55899 24-297 limits assumed, chain 1 of 2) above, with N39D, E44Q, G99S, S189G, S190N, L217M, S269T counted along it
# T6 sequence (Q8SPW0 21-119 limits assumed, chain 2 of 2): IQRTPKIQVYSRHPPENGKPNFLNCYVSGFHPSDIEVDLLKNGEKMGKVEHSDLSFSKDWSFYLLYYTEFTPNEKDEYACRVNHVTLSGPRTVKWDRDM
# [4] = target: T7, human BAFF-R expressed on cells (human, UniProt Q96RJ3 1-184); assay: flow cytometry, CHO-hBAFF-R cells
# T7 construct: Cell surface BAFF-R, endogenous on B cell lines and primary B cells or overexpressed on isogenic CHO cells; also called hBAFF-R; hBAFF-R-CHO
# cynomolgus FcRn [5] = target: T6, cynomolgus FcRn; assay: SPR, pH 6.0, steady state, average; pH 6.0; average of four replicates
# [6] = target: T1, human NKG2D (recombinant mFc-tagged …); assay: SPR, kinetic fit, after 4 weeks at 40 °C
# [7] = target: T2, cynomolgus NKG2D (recombinant …); assay: SPR, kinetics fit, average
# Description: (§2) Two different fits were utilized to obtain the equilibrium affinity data: steady state affinity fit and kinetic fit.
# recombinant human TACI = target: T3, recombinant human TACI; assay: SPR, immobilized AB1424 F3', analyte 500 nM TACI
# human CD16a V158 [8] = target: T8, human CD16a V158 (human, UniProt P08637 17-208); assay: SPR, kinetic fit, average
# T8 construct: also called hCD16aV; hCD16a V158
# T8 sequence (P08637 17-208 F176V limits assumed): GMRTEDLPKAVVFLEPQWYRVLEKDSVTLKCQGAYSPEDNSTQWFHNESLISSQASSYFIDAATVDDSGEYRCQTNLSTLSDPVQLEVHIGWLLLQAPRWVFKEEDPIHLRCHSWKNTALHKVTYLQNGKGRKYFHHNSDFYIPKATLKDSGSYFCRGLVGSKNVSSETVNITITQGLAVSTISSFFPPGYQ
# [9] = target: T2, cynomolgus NKG2D (recombinant …); assay: SPR, steady state fit, average
# Description: as §1
# [10] = target: T1, human NKG2D (recombinant mFc-tagged …); assay: SPR, steady state fit, average
# Description: as §1
# human CD16a V158 [11] = target: T8, human CD16a V158; assay: SPR, kinetic fit
# cynomolgus CD16 [12] = target: T9, cynomolgus CD16 (cynomolgus, UniProt Q8SPW2 17-208, limits assumed); assay: SPR, average
# T9 construct: also called Cyno CD16; cynomolgus FcγRIII
# T9 sequence (Q8SPW2 17-208 limits assumed): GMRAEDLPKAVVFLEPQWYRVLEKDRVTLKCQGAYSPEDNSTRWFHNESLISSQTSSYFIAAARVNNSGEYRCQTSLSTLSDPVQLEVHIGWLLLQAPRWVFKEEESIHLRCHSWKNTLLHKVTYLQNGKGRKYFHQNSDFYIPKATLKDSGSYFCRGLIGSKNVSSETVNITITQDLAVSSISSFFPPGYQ
# [13] = target: T2, cynomolgus NKG2D (recombinant …); assay: SPR, average
# Description: as §2
# [14] = target: T1, human NKG2D (recombinant mFc-tagged …); assay: SPR
# Description: as §1
# [15] = target: T2, cynomolgus NKG2D (recombinant …); assay: SPR
# [16] = target: T2, cynomolgus NKG2D (recombinant …); assay: SPR; remark: listed apart in the source
# Description: as §2
# cynomolgus CD16 [17] = target: T9, cynomolgus CD16; assay: SPR, cynomolgus FcγRIII, summary table
# human FcRn [18] = target: T5, human FcRn; assay: SPR, pH 6.0, steady state, average; pH 6.0; average of four replicates
# [19] = target: T2, cynomolgus NKG2D (recombinant …); assay: SPR, steady state fit, average; remark: listed apart in the source
# Description: as §2
# [20] = target: T2, cynomolgus NKG2D (recombinant …); assay: SPR, average; remark: listed apart in the source
# human CD32b = target: T4, human CD32b; assay: SPR, steady state, average
binder,measurement,setting,value
B1,Kd,human FcRn [1],1000 nM
same,koff,[2],0.11 s⁻¹
same,kon,[2],240000 M⁻¹ s⁻¹
same,Kd,cynomolgus FcRn [3],1000 nM
same,EC50,[4],0.7 nM
same,Max FOB,[4],146 fold over background
same,Kd,cynomolgus FcRn [5],1000 nM
same,Kd,[6],493 nM
same,Kd,[7],596 nM
same,binding result,recombinant human TACI,no binding (tested: 500 nM)
same,Kd,human CD16a V158 [8],129 nM
same,Kd,[9],520 nM
same,Kd,[10],456 nM
same,Kd,human CD16a V158 [11],131 nM (2×) and 134 nM and 122 nM
same,koff,cynomolgus CD16 [12],0.021 s⁻¹
same,kon,cynomolgus CD16 [12],76000 M⁻¹ s⁻¹
same,koff,[13],0.11 s⁻¹
same,kon,[13],190000 M⁻¹ s⁻¹
same,koff,[14],0.11 s⁻¹
same,kon,[14],240000 M⁻¹ s⁻¹ and 230000 M⁻¹ s⁻¹
same,koff,[15],0.11 s⁻¹ and 0.1 s⁻¹
same,kon,[15],210000 M⁻¹ s⁻¹ and 200000 M⁻¹ s⁻¹
same,koff,[16],0.11 s⁻¹ and 0.12 s⁻¹
same,kon,[16],180000 M⁻¹ s⁻¹ and 190000 M⁻¹ s⁻¹
same,Kd,cynomolgus CD16 [17],271 nM
same,Kd,human FcRn [18],1000 nM
same,Kd,[19],609 nM
same,koff,[20],0.11 s⁻¹
same,kon,[20],200000 M⁻¹ s⁻¹
same,Kd,human CD32b,5900 nM
